First the molecules themselves.
B1: Retinoic acid receptor beta, residues 85 to 161; numbered along this chain, P10826 (parent)
chain: YKPCFVCQDKSSGYHYGVSACEGCKGFFRRSIQKNMIYTCHRDKNCVINKVTRNRCQYCRLQKCFEVGMSKESVRND

± gives the uncertainty stated by the source.

In the series the parent is B1. Nature of the series: abundance fitness (aPCA) (normalised: wild type 0, dead -1); higher = more abundant; growth selection in yeast, the domain comes from the species named. Conditions: Homo sapiens.
For the variant YKPCFVCQDKSSGYHYGVSACEGCKGFFRRSIQGNMIYTCHRDKNCVINKVTRNRCQYCRLQKCFEVGMSKESVRND, the abundance fitness stood at 0.078 ± 0.03.

YKPCFVCQDKSSGYHYGVSACEGCKGFFRRSIQHNMIYTCHRDKNCVINKVTRNRCQYCRLQKCFEVGMSKESVRND: the abundance fitness is -0.146 ± 0.11. The value for YKPCFVCQDKSSGYHYGVSACEGCKGFFRRSIQNNMIYTCHRDKNCVINKVTRNRCQYCRLQKCFEVGMSKESVRND was 0.089 ± 0.1.

For YKPCFVCQDKSSGYHYGVSACEGCKGFFRRSIQMNMIYTCHRDKNCVINKVTRNRCQYCRLQKCFEVGMSKESVRND, the abundance fitness worked out at 0.104 ± 0.051.

As for YKPCFVCQDKSSGYHYGVSACEGCKGFFRRSIQVNMIYTCHRDKNCVINKVTRNRCQYCRLQKCFEVGMSKESVRND, the abundance fitness is -0.145 ± 0.039. With YKPCFVCQDKSSGYHYGVSACEGCKGFFRRSIQTNMIYTCHRDKNCVINKVTRNRCQYCRLQKCFEVGMSKESVRND the figure was -0.06 ± 0.056; with YKPCFVCQDKSSGYHYGVSACEGCKGFFRRSIQLNMIYTCHRDKNCVINKVTRNRCQYCRLQKCFEVGMSKESVRND, 0.074 ± 0.04; with YKPCFVCQDKSSGYHYGVSACEGCKGFFRRSIQPNMIYTCHRDKNCVINKVTRNRCQYCRLQKCFEVGMSKESVRND, -0.084 ± 0.077. In the case of YKPCFVCQDKSSGYHYGVSACEGCKGFFRRSIQRNMIYTCHRDKNCVINKVTRNRCQYCRLQKCFEVGMSKESVRND, the abundance fitness was -0.122 ± 0.035.

As for YKPCFVCQDKSSGYHYGVSACEGCKGFFRRSIQINMIYTCHRDKNCVINKVTRNRCQYCRLQKCFEVGMSKESVRND, the abundance fitness is -0.371 ± 0.12. With YKPCFVCQDKSSGYHYGVSACEGCKGFFRRSIQDNMIYTCHRDKNCVINKVTRNRCQYCRLQKCFEVGMSKESVRND the figure was 0.33 ± 0.062. Take YKPCFVCQDKSSGYHYGVSACEGCKGFFRRSIQANMIYTCHRDKNCVINKVTRNRCQYCRLQKCFEVGMSKESVRND: the abundance fitness came out at 0.003 ± 0.042. With YKPCFVCQDKSSGYHYGVSACEGCKGFFRRSIQCNMIYTCHRDKNCVINKVTRNRCQYCRLQKCFEVGMSKESVRND the figure was -0.05 ± 0.054. With YKPCFVCQDKSSGYHYGVSACEGCKGFFRRSIQFNMIYTCHRDKNCVINKVTRNRCQYCRLQKCFEVGMSKESVRND the figure was 0.014 ± 0.092; with YKPCFVCQDKSSGYHYGVSACEGCKGFFRRSIQENMIYTCHRDKNCVINKVTRNRCQYCRLQKCFEVGMSKESVRND, 0.169 ± 0.044. With YKPCFVCQDKSSGYHYGVSACEGCKGFFRRSINKNMIYTCHRDKNCVINKVTRNRCQYCRLQKCFEVGMSKESVRND the figure was 0.066 ± 0.096; with YKPCFVCQDKSSGYHYGVSACEGCKGFFRRSIYKNMIYTCHRDKNCVINKVTRNRCQYCRLQKCFEVGMSKESVRND, -0.328 ± 0.14. For YKPCFVCQDKSSGYHYGVSACEGCKGFFRRSIAKNMIYTCHRDKNCVINKVTRNRCQYCRLQKCFEVGMSKESVRND, the abundance fitness was 0.105 ± 0.043. For YKPCFVCQDKSSGYHYGVSACEGCKGFFRRSICKNMIYTCHRDKNCVINKVTRNRCQYCRLQKCFEVGMSKESVRND, the abundance fitness was -0.225 ± 0.087. With YKPCFVCQDKSSGYHYGVSACEGCKGFFRRSITKNMIYTCHRDKNCVINKVTRNRCQYCRLQKCFEVGMSKESVRND the figure was -0.15 ± 0.074; with YKPCFVCQDKSSGYHYGVSACEGCKGFFRRSIDKNMIYTCHRDKNCVINKVTRNRCQYCRLQKCFEVGMSKESVRND, 0.016 ± 0.073.

YKPCFVCQDKSSGYHYGVSACEGCKGFFRRSIWKNMIYTCHRDKNCVINKVTRNRCQYCRLQKCFEVGMSKESVRND: the abundance fitness was -0.097 ± 0.045. The value for YKPCFVCQDKSSGYHYGVSACEGCKGFFRRSIHKNMIYTCHRDKNCVINKVTRNRCQYCRLQKCFEVGMSKESVRND was -0.175 ± 0.1; that for YKPCFVCQDKSSGYHYGVSACEGCKGFFRRSIPKNMIYTCHRDKNCVINKVTRNRCQYCRLQKCFEVGMSKESVRND was -0.773 ± 0.18; that for YKPCFVCQDKSSGYHYGVSACEGCKGFFRRSIEKNMIYTCHRDKNCVINKVTRNRCQYCRLQKCFEVGMSKESVRND was -0.017 ± 0.052.

As to YKPCFVCQDKSSGYHYGVSACEGCKGFFRRSIVKNMIYTCHRDKNCVINKVTRNRCQYCRLQKCFEVGMSKESVRND, the abundance fitness turned out to be 0.045 ± 0.039. With YKPCFVCQDKSSGYHYGVSACEGCKGFFRRSISKNMIYTCHRDKNCVINKVTRNRCQYCRLQKCFEVGMSKESVRND the figure was -0.014 ± 0.05; with YKPCFVCQDKSSGYHYGVSACEGCKGFFRRSIGKNMIYTCHRDKNCVINKVTRNRCQYCRLQKCFEVGMSKESVRND, -0.044 ± 0.032. Consider YKPCFVCQDKSSGYHYGVSACEGCKGFFRRSIRKNMIYTCHRDKNCVINKVTRNRCQYCRLQKCFEVGMSKESVRND, for which the abundance fitness was -0.037 ± 0.033. With YKPCFVCQDKSSGYHYGVSACEGCKGFFRRSIKKNMIYTCHRDKNCVINKVTRNRCQYCRLQKCFEVGMSKESVRND the figure was -0.016 ± 0.069; with YKPCFVCQDKSSGYHYGVSACEGCKGFFRRSILKNMIYTCHRDKNCVINKVTRNRCQYCRLQKCFEVGMSKESVRND, 0.078 ± 0.038. With YKPCFVCQDKSSGYHYGVSACEGCKGFFRRSIFKNMIYTCHRDKNCVINKVTRNRCQYCRLQKCFEVGMSKESVRND the figure was -0.148 ± 0.091. With YKPCFVCQDKSSGYHYGVSACEGCKGFFRRSIMKNMIYTCHRDKNCVINKVTRNRCQYCRLQKCFEVGMSKESVRND the figure was 0.136 ± 0.051.

YKPCFVCQDKSSGYHYGVSACEGCKGFFRRSIIKNMIYTCHRDKNCVINKVTRNRCQYCRLQKCFEVGMSKESVRND: the abundance fitness was determined as 0.028 ± 0.088. The value for YKPCFVCQDKSSGYHYGVSACEGCKGFFRRSWQKNMIYTCHRDKNCVINKVTRNRCQYCRLQKCFEVGMSKESVRND was -0.432 ± 0.083. As for YKPCFVCQDKSSGYHYGVSACEGCKGFFRRSYQKNMIYTCHRDKNCVINKVTRNRCQYCRLQKCFEVGMSKESVRND, the abundance fitness was -0.056 ± 0.099.

These data come from the Human Domainome abundance scans (Beltran et al. 2025).
